Reference: patent US6458934 (LG CHEMICAL, dated 2002)
Numbering of substitutions follows the chain as printed.

B1: mouse monoclonal antibody 4B4-1-1 (antibody, V domains shown)
VH: QVQLQQPGAELVKPGASVKLSCKASGYTFSSYWMHWVKQRPGQVLEWIGEINPGNGHTNYNEKFKSKATLTVDKSSSTAYMQLSSLTSEDSAVYYCARSFTTARAFAYWGQGTLVTVSA
VL: DIVMTQSQATQSVTPGDRVSLSCRASQTISDYLHWYQQKSHESPRLLIKYASQSISGIPSRFSGSGSGSDFTLSINSVEPEDVGVYYCQDGHSFPPTFGGGTKLEIK
notes: Whole mouse monoclonal antibody from a hybridoma; also called 4B4 MAb; 4B4 monoclonal antibody
B2: humanized antibody Hz4B4-1 (antibody, V domains shown)
VH: B1 VH with Q5V, P7S, L11V, R40A, S76A, Q82E, T87R, S91T, A119S
VL: B1 VL with Q8P, T14S, D17E, S20T, S40P, H41G, E42Q, S74T, N76S, V83F
notes: also called Hz4B4k-1 (light chain variable region); Hz4B4h-1 (heavy chain variable region)
B3: humanized antibody Hz4B4-2 (antibody, V domains shown)
VH: QVQLVQSGAEVKKPGASVKVSCKASGYTFSSYWMHWVRQAPGQRLEWMGEINPGNGHTNYSQKFQGRVTITVDKSASTAYMELSSLRSEDTAVYYCARSFTTARAFAYWGQGTLVTVSS
VL: DIVMTQSPPTLSLSPGERVTLSCRASQSISDYLHWYQQKPGQSPRLLIKYASQSISGIPARFSGSGSGTDFTLTISSLEPEDFAVYYCQDGHSFPPTFGGGTKVEIK
notes: Whole antibody made in CHO-K1 cells (SB500 clone); The variable regions were put into the Hz4B4-1 expression vectors, so it has the same human kappa and human heavy chain constant regions; also called Hz4B4k-2 (light chain); Hz4B4h-2 (heavy chain)

Experiments:
4-1BB antigen [1] = target: T1, 4-1BB antigen (human, UniProt Q07011 24-186, limits assumed); experiment: BIAcore SPR as in Example 5; antibody captured, 4-1BB antigen in flow
T1 construct: also called human 4-1BB; h4-1BB
Experimental: (§1) The binding affinity of the mouse monoclonal antibody 4B4-1-1 and humanized antibody were determined and compared using the BIAcore™ assay (Pharmacia). Rabbit anti-mouse IgG (Sigma) and goat anti-human IgG (Fc-specific) were each diluted in 10 mM acetic acid buffer, and coupled to a Dextran CM-5 sensor chip (Pharmacia). 1 M ethanolamine was added to stop the reaction. Mouse monoclonal antibody 4B4-1-1 and humanized antibody Hz4B4-1 were each diluted to a concentration of 50 μg/ml in HEPES buffer (HBS). The coupled antibodies were bound at 100 resonance units (R.U.), and 25 μg/ml of 4-1BB antigen was applied at a flow rate of 10 μl/min. and bound for 5 minutes. HBS buffer (Pharmacia) was applied for 5 minutes at the same flow rate so that dissociation would occur. The association rate and dissociation rates and corresponding rate constants were determined by using BIA evaluation software. The results are shown in Table 2 as $kon$ and $koff$ values; K_d is also shown.
(§2) The antigen binding affinity of the purified Hz4B4-2 humanized antibody was measured as in Example 5 using the BIAcore™ assay (Pharmacia).

4-1BB antigen [2] = target: T1, 4-1BB antigen; experiment: BIAcore SPR; antibody captured by anti-mouse IgG on a CM-5 chip, 4-1BB antigen 25 µg/ml in flow
Experimental: as §1

4-1BB antigen [3] = target: T1, 4-1BB antigen; experiment: BIAcore SPR; ratio of Kd against mouse monoclonal antibody 4B4-1-1
Experimental: as §1, §2

4-1BB antigen [4] = target: T1, 4-1BB antigen; experiment: BIAcore SPR; antibody captured by anti-human IgG (Fc-specific) on a CM-5 chip, 4-1BB antigen 25 µg/ml in flow
Experimental: as §1

4-1BB antigen [5] = target: T1, 4-1BB antigen; experiment: summary of the BIAcore results; ratio against mouse monoclonal antibody 4B4-1-1
4-1BB antigen [6] = target: T1, 4-1BB antigen; experiment: summary of the BIAcore results; ratio against Hz4B4-1

Binder	Kd (4-1BB antigen [1]) [nM]	kon (4-1BB antigen [1]) [M⁻¹ s⁻¹]	Kd (4-1BB antigen [2]) [nM]	koff (4-1BB antigen [2]) [s⁻¹]	kon (4-1BB antigen [2]) [M⁻¹ s⁻¹]	fold greater antigen binding affinity (Kd) than mouse antibody 4B4-1-1 (4-1BB antigen [3]) [fold]	fold greater antigen binding affinity (Kd) than mouse monoclonal antibody 4B4-1-1 (4-1BB antigen [3]) [fold]	Kd (4-1BB antigen [4]) [nM]	koff (4-1BB antigen [4]) [s⁻¹]	kon (4-1BB antigen [4]) [M⁻¹ s⁻¹]	koff (4-1BB antigen [1]) [s⁻¹]	fold greater antigen binding affinity than mouse monoclonal antibody 4B4-1-1 (4-1BB antigen [3]) [fold]	fold higher antigen binding affinity than the original mouse monoclonal antibody (4-1BB antigen [5]) [fold]	fold greater antigen binding affinity than Hz4B4-1 (4-1BB antigen [6]) [fold]
B1	0.133	11600	0.133	1.54e-06	11600									
B2	0.0872	50000				~1.5	1.5	0.0872	4.36e-06	50000	4.36e-06			
B3												7.3	7	5
